Where no end group is shown, it is not given here.
The molecules below were run against endoplasmic reticulum aminopeptidase 1 (UniProt Q9NZ08 1-941, limits assumed) (assay: cell-based or functional assay). Conditions: not given.
Chain of endoplasmic reticulum aminopeptidase 1 (Q9NZ08 whole entry): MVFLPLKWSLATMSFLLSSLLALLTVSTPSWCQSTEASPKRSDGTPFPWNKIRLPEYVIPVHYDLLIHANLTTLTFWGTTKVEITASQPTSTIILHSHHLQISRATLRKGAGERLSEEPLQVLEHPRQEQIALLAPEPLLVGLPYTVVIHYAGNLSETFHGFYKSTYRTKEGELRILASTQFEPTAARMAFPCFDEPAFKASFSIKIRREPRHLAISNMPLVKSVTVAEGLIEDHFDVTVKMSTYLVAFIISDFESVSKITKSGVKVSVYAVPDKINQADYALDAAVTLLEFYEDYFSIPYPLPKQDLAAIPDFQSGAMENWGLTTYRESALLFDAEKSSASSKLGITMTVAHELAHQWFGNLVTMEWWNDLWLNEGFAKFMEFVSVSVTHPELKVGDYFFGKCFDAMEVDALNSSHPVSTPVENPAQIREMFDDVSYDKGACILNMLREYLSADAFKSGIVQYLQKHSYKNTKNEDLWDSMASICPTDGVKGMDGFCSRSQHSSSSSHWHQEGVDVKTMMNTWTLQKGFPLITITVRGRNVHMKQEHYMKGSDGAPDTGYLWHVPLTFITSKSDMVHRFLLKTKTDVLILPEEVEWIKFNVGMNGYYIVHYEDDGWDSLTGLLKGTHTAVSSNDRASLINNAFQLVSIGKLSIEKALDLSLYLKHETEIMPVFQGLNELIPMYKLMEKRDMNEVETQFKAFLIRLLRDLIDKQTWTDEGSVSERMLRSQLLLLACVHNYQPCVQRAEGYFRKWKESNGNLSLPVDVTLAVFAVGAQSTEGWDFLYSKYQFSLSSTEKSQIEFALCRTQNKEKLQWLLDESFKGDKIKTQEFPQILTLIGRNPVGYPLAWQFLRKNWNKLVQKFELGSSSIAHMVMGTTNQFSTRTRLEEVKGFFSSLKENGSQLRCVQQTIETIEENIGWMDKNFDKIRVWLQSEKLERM

Production Rate of SEQ ID NO: 4 [%] | Molecule
24.4 | HCYTWNQMNL (also: TFA salt) [peptide HCYTWNQMNL (SEQ ID NO: 34)]
20.3 | CCYTWNQMNL (cysteine pairing not given here; also: TFA salt) [peptide CCYTWNQMNL (SEQ ID NO: 10)]
18.4 | FCYTWNQMNL (also: TFA salt) [peptide FCYTWNQMNL (SEQ ID NO: 38)]
35.2 | YCYTWNQMNL (also: TFA salt) [peptide YCYTWNQMNL (SEQ ID NO: 40)]
32.5 | ECYTWNQMNL (also: TFA salt) [peptide ECYTWNQMNL (SEQ ID NO: 32)]
24.6 | SCYTWNQMNL (also: TFA salt) [peptide SCYTWNQMNL (SEQ ID NO: 63)]
5.2 | WCYTWNQMNL (also: TFA salt) [peptide WCYTWNQMNL (SEQ ID NO: 66)]
2.8 | ICYTWNQMNL (also: TFA salt) [peptide ICYTWNQMNL (SEQ ID NO: 58)]
11.1 | PCYTWNQMNL (also: TFA salt) [peptide PCYTWNQMNL (SEQ ID NO: 62)]
5.1 | VCYTWNQMNL (also: TFA salt) [peptide VCYTWNQMNL (SEQ ID NO: 65)]
49.2 | RCYTWNQMNL (also: TFA salt) [peptide RCYTWNQMNL (SEQ ID NO: 28)]
32.5 | QCYTWNQMNL (also: TFA salt) [peptide QCYTWNQMNL (SEQ ID NO: 30)]
29.1 | NCYTWNQMNL (also: TFA salt) [peptide NCYTWNQMNL (SEQ ID NO: 61)]
45 | KCYTWNQMNL (also: TFA salt) [peptide KCYTWNQMNL (SEQ ID NO: 36)]
5.8 | LCYTWNQMNL (also: TFA salt) [peptide LCYTWNQMNL (SEQ ID NO: 59)]
10 | ACYTWNQMNL (also: TFA salt) [peptide ACYTWNQMNL (SEQ ID NO: 55)]
32.1 | MCYTWNQMNL (also: TFA salt) [peptide MCYTWNQMNL (SEQ ID NO: 60)]
15.6 | TCYTWNQMNL (also: TFA salt) [peptide TCYTWNQMNL (SEQ ID NO: 64)]

These molecules were tested on HLA-A*24:02 transgenic mouse (assay: In vivo CTL induction in HLA-A*24:02 transgenic mouse (IFNγ ELISPOT assay of splenocytes)). Conditions: peptide 280 μg per site, intradermal Montanide ISA 51 VG emulsion, two sites; one week after administration.
Protocol: The HLA-A*24:02 transgenic mouse (C57BL/6CrHLA-A2402/K^b) is a mouse that expresses a chimeric HLA of a human MHC, HLA-A*24:02 with a mouse MHC, H-2K^b.
The solution was diluted with water for injection to a concentration of 10 mg/mL, and then converted to an emulsion by addition of an equal volume of Montanide ISA 51 VG. […] The concentrations of DMSO contained in emulsions were also fixed. One week after the administration, the mice were sacrificed with CO2 gas. Splenocytes were harvested from spleens removed from the mice. For detecting IFNγ-producing splenocytes, an IFNγ ELISPOT assay kit was used. In particular, an ELISPOT plate was treated with an anti-mouse-IFNγ antibody on the day before preparation of the splenocyte samples. On the next day, the plate was blocked by treatment with an RPMI 1640 medium with 10% FBS. To the blocked ELISPOT plate, the splenocyte samples from the HLA-A*24:02 transgenic mice were added at 2.5×10^5 cells/well. For in vitro stimulation of the cells, the peptide of SEQ ID NO: 4 was dissolved in DMSO at a concentration of 40 mg/ml, diluted with RPMI 1640 with 10% FBS to 40 μg/ml, and added to the splenocyte-containing wells at a final concentration of 10 μg/ml. The plate was incubated for 18-20 hours at 37° C. under an atmosphere of 5% CO2. Then, after removal of the culture medium from the wells, the ELISPOT plate was subjected to treatment for cell staining in accordance with the manufacturer's protocol. Stained spots were counted on ImmunoSpot S6 Analyzer (C.T.L.). […]

Molecule | induction of CTLs responsive to the peptide of SEQ ID NO: 4 (IFNγ-producing splenocytes)
ECYTWNQMNL [SEQ ID NO: 32] | induced CTLs responsive to the peptide of SEQ ID NO: 4
FCYTWNQMNL [SEQ ID NO: 38] | induced CTLs responsive to the peptide of SEQ ID NO: 4
HCYTWNQMNL [SEQ ID NO: 34] | induced CTLs responsive to the peptide of SEQ ID NO: 4
KCYTWNQMNL [SEQ ID NO: 36] | induced CTLs responsive to the peptide of SEQ ID NO: 4
QCYTWNQMNL [SEQ ID NO: 30] | induced CTLs responsive to the peptide of SEQ ID NO: 4
RCYTWNQMNL [SEQ ID NO: 28] | induced CTLs responsive to the peptide of SEQ ID NO: 4
YCYTWNQMNL [SEQ ID NO: 40] | induced CTLs responsive to the peptide of SEQ ID NO: 4

— US20210100886A1, “WT1 CANCER ANTIGEN PEPTIDES AND PEPTIDE CONJUGATES COMPRISING THE PEPTIDES” (SUMITOMO DAINIPPON PHARMA CO., LTD., priority 2017, published 2021)
